Results from article PMC3535368, “Heme orientation modulates histidine dissociation and ligand binding kinetics in the hexacoordinated human neuroglobin” (Journal of Biological Inorganic Chemistry, 2012).
Numbering of substitutions follows the chain as printed. Like-named read-outs stand apart in the source and are kept apart here.

B1: WTox (A isomer): oxidized wild-type human Ngb (Cys46-Cys55 disulfide bridge), A heme conformer (protein, UniProt Q9NPG2 1-151, looked up)
Neuroglobin: MERPEPELIRQSWRAVSRSPLEHGTVLFARLFALEPDLLPLFQYNCRQFSSPEDCLSSPEFLDHIRKVMLVIDAAVTNVEDLSSLEEYLASLGRKHRAVGVKLSSFSTVGESLLYMLEKCLGPAFTPATRAAWSQLYGAVVQAMSRGWDGE
modifications: oxidized, heme A isomer
B2: C120Sred (A isomer) (protein, UniProt Q9NPG2 1-151, looked up, variant C120S)
Neuroglobin: B1 Neuroglobin with C120S
modifications: reduced, heme A isomer
B3: C120Sox (A isomer) (protein, UniProt Q9NPG2 1-151, looked up, variant C120S)
Neuroglobin: B1 Neuroglobin with C120S
modifications: oxidized, heme A isomer
B4: WTox (B isomer): oxidized wild-type human Ngb (Cys46-Cys55 disulfide bridge), B heme conformer (protein, UniProt Q9NPG2 1-151, looked up)
Neuroglobin: B1 Neuroglobin
modifications: oxidized, heme B isomer
B5: WTred (B isomer): DTT-reduced wild-type human Ngb, B heme conformer (protein, UniProt Q9NPG2 1-151, looked up)
Neuroglobin: B1 Neuroglobin
modifications: DTT-reduced, heme B conformer
B6: WTred (A isomer): DTT-reduced wild-type human Ngb, A heme conformer (protein, UniProt Q9NPG2 1-151, looked up)
Neuroglobin: B1 Neuroglobin
modifications: DTT-reduced, heme A conformer
B7: C120Sox (B isomer) (protein, UniProt Q9NPG2 1-151, looked up, variant C120S)
Neuroglobin: B1 Neuroglobin with C120S
modifications: oxidized, heme B isomer
B8: WTred: wild-type human Ngb with reduced cysteines, both heme isomers (protein, UniProt Q9NPG2 1-151, looked up)
Neuroglobin: B1 Neuroglobin
modifications: reduced cysteines
notes: wild-type human Ngb with reduced cysteines, both heme isomers
B9: C120Sred (B isomer) (protein, UniProt Q9NPG2 1-151, looked up, variant C120S)
Neuroglobin: B1 Neuroglobin with C120S
modifications: reduced, heme B isomer
B10: human Ngb: human neuroglobin, hexacoordinated hemoprotein of brain and retina (protein, UniProt Q9NPG2 1-151, looked up)
Neuroglobin: B1 Neuroglobin

Legend:
[1] = for fraction of isomer remaining unbound (free) at equilibrium: end of reaction; for k off, off-rate of cyanide: estimated from K d and k obs; for Kd: read-out: K d, dissociation constant of cyanide, calculated from concentrations of free and bound species at equilibrium
[2] = Air reoxidation of the disulfide bridge followed by 1H NMR, cyanide omitted; type: physicochemical, human; conditions: no reducing agent, increase of WTox peak intensity
[3] = parameters: method as in PMID 15020597; conditions: UV-visible study; cited from earlier work
[4] = 500 μM KCN, 100 μM protein, 20 mM Tris-HCl pH 7.4, 298 K
[5] = calculated from T and 500 μM cyanide, 1/T = k obs[CN−]

Row | Molecule | T, time constant of cyanide binding (exponential fit of heme methyl peak intensities) [1, 4] [min] | k obs, second-order association rate constant for cyanide binding [1, 5] [M⁻¹ s⁻¹] | k obs, second-order association rate constant for cyanide binding [1] [M⁻¹ s⁻¹] | T, time constant of cyanide binding (exponential fit of heme methyl peak intensities) ([1]; pH 7.4) [min] | other results
1 | B1 | 19 | 1.75 | – | – | time after KCN injection at which CN− binding reaction was completed ([1]; judged from constant peak intensities, 500 μM KCN): 60 min
2 | B2 | – | – | 0.24 | 138 | –
3 | B3 | – | – | 1.85 | 18 | –
4 | B4 | 97 | 0.34 | – | – | time after which CN− binding reaction was hardly finished ([1]; 500 μM KCN): ~5 h
5 | B5 | 265 | 0.12 | – | – | fraction of isomer remaining unbound (free) at equilibrium ([1]; 500 μM KCN, 100 μM protein): ~24%; k off, off-rate of cyanide [1]: 3.9e-05 s⁻¹; Kd [1]: 316 µM
6 | B6 | 127 | 0.26 | – | – | fraction of isomer remaining unbound (free) at equilibrium ([1]; 500 μM KCN, 100 μM protein): about 42%; k off, off-rate of cyanide [1]: 3.9e-05 s⁻¹; Kd [1]: 153 µM
7 | B7 | – | – | 0.28 | 119 | –
8 | B8 | – | – | – | – | rate (time) of air reoxidation of the disulfide bridge [2]: about 60 h
9 | B9 | – | – | 0.13 | 255 | –
10 | B10 | – | – | – | – | k on,CN, rate of cyanide binding to the pentacoordinate state ([1]; estimated here): 6700 M⁻¹ s⁻¹; fast cyanide binding rate (biphasic) [3]: 1.65 M⁻¹ s⁻¹; slow cyanide binding rate (biphasic) [3]: 0.37 M⁻¹ s⁻¹
